IntAct's records for PubMed 12679340

Molecular target: otc_yeast ARG3 (UniProt P05150)
Sequence (P05150 whole entry): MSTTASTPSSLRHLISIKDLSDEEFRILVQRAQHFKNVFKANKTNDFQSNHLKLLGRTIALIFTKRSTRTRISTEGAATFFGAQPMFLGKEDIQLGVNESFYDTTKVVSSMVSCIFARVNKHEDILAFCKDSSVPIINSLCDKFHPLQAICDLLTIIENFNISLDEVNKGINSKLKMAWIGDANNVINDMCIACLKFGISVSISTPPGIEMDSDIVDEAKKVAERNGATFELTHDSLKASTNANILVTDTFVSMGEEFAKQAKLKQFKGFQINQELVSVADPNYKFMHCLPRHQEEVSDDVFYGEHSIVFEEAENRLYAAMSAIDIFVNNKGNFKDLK

Sequence of Arginase (Saccharomyces cerevisiae), P00812 C321R;C326T (P00812 whole entry C321R/C326T): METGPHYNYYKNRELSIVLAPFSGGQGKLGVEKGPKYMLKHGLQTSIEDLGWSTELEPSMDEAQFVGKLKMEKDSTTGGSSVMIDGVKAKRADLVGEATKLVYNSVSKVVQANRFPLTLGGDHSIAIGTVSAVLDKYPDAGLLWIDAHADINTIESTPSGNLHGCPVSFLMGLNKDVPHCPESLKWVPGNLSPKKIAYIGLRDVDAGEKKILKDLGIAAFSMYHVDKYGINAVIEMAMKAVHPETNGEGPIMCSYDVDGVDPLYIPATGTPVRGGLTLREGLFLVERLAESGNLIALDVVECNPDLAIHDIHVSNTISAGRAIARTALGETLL

Question: “Arginase (Saccharomyces cerevisiae), P00812 C321R;C326T” was tested. Which “effect of a mutation on the interaction” value did it give?
Answer: decreasing interaction
